Measurements from US20180086841A1.

Columns and labels:
[1] = molecular target: Macaca mulatta CD27 (mmCD27) (Macaca mulatta (rhesus) / Macaca fascicularis (cynomolgus)); experiment: cell-based or functional assay
[2] = molecular target: human CD27 (A59T) (human) (UniProt P26842); experiment: cell-based or functional assay
human CD27 (human) [3] = molecular target: human CD27 (human) (UniProt P26842); experiment: cell-based or functional assay
[4] = molecular target: Macaca mulatta CD27 (mmCD27) (Macaca mulatta (rhesus) / Macaca fascicularis (cynomolgus)); experiment: cell ELISA on CD27-transfected CHOK1 cells, n=2
[5] = molecular target: human CD27 (A59T) (human) (UniProt P26842); experiment: cell ELISA on CD27-transfected CHOK1 cells, n=2
human CD27 (human) [6] = molecular target: human CD27 (human) (UniProt P26842); experiment: cell ELISA on CD27-transfected CHOK1 cells, n=2
D32A [7] = experiment: flow cytometry on CHO-K1 transfectants, left sub-column
E9A [8] = experiment: as above
F28A [9] = experiment: as above
H60A [10] = experiment: as above
I46A [11] = experiment: as above
K31A [12] = experiment: as above
P44A [13] = experiment: as above
P8A [14] = experiment: as above
Q15A [15] = experiment: as above
Q41A [16] = experiment: as above
R10A [17] = experiment: as above
R37A [18] = experiment: as above
R93A [19] = experiment: as above
V30A [20] = experiment: as above
V49A [21] = experiment: as above
D32A [22] = experiment: flow cytometry on CHO-K1 transfectants, right sub-column
D43A = experiment: as above
E9A [23] = experiment: as above
F28A [24] = experiment: as above
G16A = experiment: as above
G89A = experiment: as above
H36A = experiment: as above
H60A [25] = experiment: as above
I46A [26] = experiment: as above
K17A = experiment: as above
K31A [27] = experiment: as above
K38A = experiment: as above
N88A = experiment: as above
P44A [28] = experiment: as above
P8A [29] = experiment: as above
Q15A [30] = experiment: as above
Q41A [31] = experiment: as above
Q91A = experiment: as above
R10A [32] = experiment: as above
R37A [33] = experiment: as above
R93A [34] = experiment: as above
S63A = experiment: as above
V30A [35] = experiment: as above
V49A [36] = experiment: as above
W13A = experiment: as above
[37] = molecular target: Macaca mulatta CD27 (mmCD27) (Macaca mulatta (rhesus) / Macaca fascicularis (cynomolgus)); experiment: flow cytometry MFI, CD4+ T cells in rhesus peripheral blood, n=4
[38] = molecular target: Macaca mulatta CD27 (mmCD27) (Macaca mulatta (rhesus) / Macaca fascicularis (cynomolgus)); experiment: flow cytometry MFI, CD8+ T cells in rhesus peripheral blood, n=4
human CD27 (human) [39] = molecular target: human CD27 (human) (UniProt P26842); experiment: competition cell ELISA on CHO-hCD27; competitor detected: mouse hCD27.15 at 1 µg/ml
R87A = experiment: flow cytometry on CHO-K1 transfectants, right sub-column, cell hatched (loss of binding)
W90A = experiment: as above

Sequence of 1F5-hIgG1 (antibody) (VH): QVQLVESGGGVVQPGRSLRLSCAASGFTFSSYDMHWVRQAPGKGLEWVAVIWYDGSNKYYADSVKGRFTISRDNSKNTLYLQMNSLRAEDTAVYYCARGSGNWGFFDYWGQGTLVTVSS
Sequence of 1F5-hIgG1 (antibody) (VL): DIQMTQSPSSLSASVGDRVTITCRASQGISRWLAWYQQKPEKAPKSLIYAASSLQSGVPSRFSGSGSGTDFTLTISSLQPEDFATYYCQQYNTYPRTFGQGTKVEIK
Sequence of Q15A (receptor chain, as listed by the source Q15A Q15A limits assumed): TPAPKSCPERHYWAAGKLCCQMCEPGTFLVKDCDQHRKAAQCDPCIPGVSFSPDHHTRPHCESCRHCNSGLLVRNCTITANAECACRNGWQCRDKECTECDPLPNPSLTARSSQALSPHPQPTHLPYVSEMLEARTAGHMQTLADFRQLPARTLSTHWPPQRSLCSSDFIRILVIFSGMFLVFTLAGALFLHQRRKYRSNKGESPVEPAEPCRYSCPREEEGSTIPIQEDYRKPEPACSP
Sequence of D32A (receptor chain, as listed by the source D32A D32A limits assumed): as the sequence (receptor chain, as listed by the source Q15A Q15A limits assumed) above, with A15Q, D32A counted along it
Sequence of P8A (receptor chain, as listed by the source limits assumed): as the sequence (receptor chain, as listed by the source Q15A Q15A limits assumed) above, with P8A, A15Q counted along it
Sequence of P44A (receptor chain, as listed by the source P44A P44A limits assumed): as the sequence (receptor chain, as listed by the source Q15A Q15A limits assumed) above, with A15Q, P44A counted along it
Sequence of Q41A (receptor chain, as listed by the source Q41A Q41A limits assumed): as the sequence (receptor chain, as listed by the source Q15A Q15A limits assumed) above, with A15Q, Q41A counted along it
Sequence of F28A (receptor chain, as listed by the source F28A F28A limits assumed): as the sequence (receptor chain, as listed by the source Q15A Q15A limits assumed) above, with A15Q, F28A counted along it
Sequence of R93A (receptor chain, as listed by the source R93A R93A limits assumed): as the sequence (receptor chain, as listed by the source Q15A Q15A limits assumed) above, with A15Q, R93A counted along it
Sequence of R10A (receptor chain, as listed by the source R10A R10A limits assumed): as the sequence (receptor chain, as listed by the source Q15A Q15A limits assumed) above, with R10A, A15Q counted along it
Sequence of E9A (receptor chain, as listed by the source limits assumed): as the sequence (receptor chain, as listed by the source Q15A Q15A limits assumed) above, with E9A, A15Q counted along it
Sequence of K31A (receptor chain, as listed by the source K31A K31A limits assumed): as the sequence (receptor chain, as listed by the source Q15A Q15A limits assumed) above, with A15Q, K31A counted along it
Sequence of R37A (receptor chain, as listed by the source R37A R37A limits assumed): as the sequence (receptor chain, as listed by the source Q15A Q15A limits assumed) above, with A15Q, R37A counted along it
Sequence of H60A (receptor chain, as listed by the source H60A H60A limits assumed): as the sequence (receptor chain, as listed by the source Q15A Q15A limits assumed) above, with A15Q, H60A counted along it
Sequence of V30A (receptor chain, as listed by the source V30A V30A limits assumed): as the sequence (receptor chain, as listed by the source Q15A Q15A limits assumed) above, with A15Q, V30A counted along it
Sequence of V49A (receptor chain, as listed by the source V49A V49A limits assumed): as the sequence (receptor chain, as listed by the source Q15A Q15A limits assumed) above, with A15Q, V49A counted along it
Sequence of I46A (receptor chain, as listed by the source I46A I46A limits assumed): as the sequence (receptor chain, as listed by the source Q15A Q15A limits assumed) above, with A15Q, I46A counted along it
Sequence of H36A (receptor chain, as listed by the source H36A H36A limits assumed): as the sequence (receptor chain, as listed by the source Q15A Q15A limits assumed) above, with A15Q, H36A counted along it
Sequence of D43A (receptor chain, as listed by the source D43A D43A limits assumed): as the sequence (receptor chain, as listed by the source Q15A Q15A limits assumed) above, with A15Q, D43A counted along it
Sequence of K38A (receptor chain, as listed by the source K38A K38A limits assumed): as the sequence (receptor chain, as listed by the source Q15A Q15A limits assumed) above, with A15Q, K38A counted along it

Question: For 1F5-hIgG1 (antibody), which NF-κB-luciferase reporter assay, Emax [1] is on record?
Answer: 1.33 fold change

Question: What about the NF-κB-luciferase reporter assay, Emax [2] of the same substance?
Answer: 1.3 fold change

Question: What about the NF-κB-luciferase reporter assay, Emax (human CD27 (human) [3]) of the same substance?
Answer: 1.48 fold change

Question: What about the EC50 [4] of the same substance?
Answer: 0.193 nM

Question: And the EC50 [5]?
Answer: 0.326 nM

Question: And the EC50 (human CD27 (human) [6])?
Answer: 0.325 nM

Question: What about the binding, WT hCD27 = 100 (GM FITC) (D32A [7]) of the same substance?
Answer: 115%

Question: And the binding, WT hCD27 = 100 (GM FITC) (E9A [8])?
Answer: 95.4%

Question: And the binding, WT hCD27 = 100 (GM FITC) (F28A [9])?
Answer: 113%

Question: And the binding, WT hCD27 = 100 (GM FITC) (H60A [10])?
Answer: 176%

Question: And the binding, WT hCD27 = 100 (GM FITC) (I46A [11])?
Answer: 128%

Question: And the binding, WT hCD27 = 100 (GM FITC) (K31A [12])?
Answer: 205%

Question: And the binding, WT hCD27 = 100 (GM FITC) (P44A [13])?
Answer: 150%

Question: What about the binding, WT hCD27 = 100 (GM FITC) (P8A [14]) of the same substance?
Answer: 82.5%

Question: What about the binding, WT hCD27 = 100 (GM FITC) (Q15A [15]) of the same substance?
Answer: 99%

Question: What about the binding, WT hCD27 = 100 (GM FITC) (Q41A [16]) of the same substance?
Answer: 104%

Question: And the binding, WT hCD27 = 100 (GM FITC) (R10A [17])?
Answer: 105%

Question: And the binding, WT hCD27 = 100 (GM FITC) (R37A [18])?
Answer: 109%

Question: And the binding, WT hCD27 = 100 (GM FITC) (R93A [19])?
Answer: 120%

Question: And the binding, WT hCD27 = 100 (GM FITC) (V30A [20])?
Answer: 171%

Question: And the binding, WT hCD27 = 100 (GM FITC) (V49A [21])?
Answer: 143%

Question: What about the binding, WT hCD27 = 100 (GM FITC) (D32A [22]) of the same substance?
Answer: 59.6%

Question: What about the binding, WT hCD27 = 100 (GM FITC) (D43A) of the same substance?
Answer: 86.1%

Question: What about the binding, WT hCD27 = 100 (GM FITC) (E9A [23]) of the same substance?
Answer: 120%

Question: What about the binding, WT hCD27 = 100 (GM FITC) (F28A [24]) of the same substance?
Answer: 46.2%

Question: What about the binding, WT hCD27 = 100 (GM FITC) (G16A) of the same substance?
Answer: 101%

Question: And the binding, WT hCD27 = 100 (GM FITC) (G89A)?
Answer: 68.5%

Question: And the binding, WT hCD27 = 100 (GM FITC) (H36A)?
Answer: 80%

Question: And the binding, WT hCD27 = 100 (GM FITC) (H60A [25])?
Answer: 110%

Question: And the binding, WT hCD27 = 100 (GM FITC) (I46A [26])?
Answer: 69.7%

Question: And the binding, WT hCD27 = 100 (GM FITC) (K17A)?
Answer: 112%

Question: And the binding, WT hCD27 = 100 (GM FITC) (K31A [27])?
Answer: 120%

Question: What about the binding, WT hCD27 = 100 (GM FITC) (K38A) of the same substance?
Answer: 94.2%

Question: And the binding, WT hCD27 = 100 (GM FITC) (N88A)?
Answer: 119%

Question: What about the binding, WT hCD27 = 100 (GM FITC) (P44A [28]) of the same substance?
Answer: 83.7%

Question: What about the binding, WT hCD27 = 100 (GM FITC) (P8A [29]) of the same substance?
Answer: 73.1%

Question: What about the binding, WT hCD27 = 100 (GM FITC) (Q15A [30]) of the same substance?
Answer: 127%

Question: What about the binding, WT hCD27 = 100 (GM FITC) (Q41A [31]) of the same substance?
Answer: 66.3%

Question: What about the binding, WT hCD27 = 100 (GM FITC) (Q91A) of the same substance?
Answer: 115%

Question: What about the binding, WT hCD27 = 100 (GM FITC) (R10A [32]) of the same substance?
Answer: 113%

Question: What about the binding, WT hCD27 = 100 (GM FITC) (R37A [33]) of the same substance?
Answer: 88%

Question: And the binding, WT hCD27 = 100 (GM FITC) (R93A [34])?
Answer: 85.5%

Question: And the binding, WT hCD27 = 100 (GM FITC) (S63A)?
Answer: 121%

Question: And the binding, WT hCD27 = 100 (GM FITC) (V30A [35])?
Answer: 88.9%

Question: And the binding, WT hCD27 = 100 (GM FITC) (V49A [36])?
Answer: 92.8%

Question: What about the binding, WT hCD27 = 100 (GM FITC) (W13A) of the same substance?
Answer: 82.8%

Question: And the EC50 [37]?
Answer: 1.58 nM

Question: What about the EC50 [38] of the same substance?
Answer: 1.92 nM

Question: And the IC50 (read off the curve) (human CD27 (human) [39])?
Answer: 4 nM

Question: And the binding, WT hCD27 = 100 (GM FITC) (R87A)?
Answer: 7.8%

Question: What about the binding, WT hCD27 = 100 (GM FITC) (W90A) of the same substance?
Answer: 10%
